Results as given in patent publication US20240400717A1, “Antibody Binding to CHI3L1 for Treating Cancer” (National Cheng Kung University, priority 2021, published 2024).

B1: #293R3-5: fully human anti-CHI3L1 mAb, Table 1 No. 5; heavy chain SEQ ID NO: 81, light chain SEQ ID NO: 82 (antibody, listed as Homo sapiens)
VH: EVQLVQSGAGVKKPGATVKISCKVSGYTFTDYYMHWVQQAPGKGLEWMGLVDPEDGETIYAEKFQGRVTITADTSTDTAYMELSSLRSEDTAVYYCATASPREEMPYYFDYWGQGTLVTVSS
light: SYELTQPPSVSVSPGQTASITCSGDILADQYASWYQQKPGQSPVLVIYHDTKRPSGVPERFSGSTSGNTATLTISGTQAMDEAAYYCQAWDINTAWVFGGGTQLTVLGQPKAAPSVTLFPPSSEELQANKATLVCLISDFYPGAVTVAWKADSSPVKAGVETTTPSKQSNNKYAASSYLSLTPEQWKSHRSYSCQVTHEGSTVEKTVAPTECS
B2: #R4-2: fully human anti-CHI3L1 mAb, Table 1 No. 7; heavy chain SEQ ID NO: 1, light chain SEQ ID NO: 2 (antibody, listed as Homo sapiens)
heavy: QVQLVQSGAEVKKPGSSVKVSCKASGGTFSSYAISWVRQAPGQGLEWMGGIIPIFGTANYAQKFQGRVTITADESTSTAYMELSSLRSEDTAVYYCARGDIEYYDILTGYYYYFDYWGQGTLVTVSS
light: SYVLTQPPSVSVAPGKAARVTCGGNDIGSKSVQWYQQKPGQAPVLVISYDNDRPSGIPERFSGSNSGNTATLTISRVEAGDEADYYCQVWDSTSDHYVFGTGTKVTVQGQPKANPTVTLFPPSSEELQANKATLVCLISDFYPGAVTVAWKADSSPVKAGVETTTPSKQSNNKYAASSYLSLTPEQWKSHRSYSCQVTHEGSTVEKTVAPTECS
B3: #R4-53: fully human anti-CHI3L1 mAb, Table 1 No. 33; heavy chain SEQ ID NO: 25, light chain SEQ ID NO: 26 (antibody, listed as Homo sapiens)
VH: QVQLVQSGAEVKKPGASVKVSCKASGYTFTSYYMHWVRQAPGQGLEWMGIINPSGGSTSYAQKFQGRVTMTRDTSTSTVYMELSSLRSEDTAVYYCASDIGDYGDYWGQGTTVTVSS
light: SYVLTQPPSVSVALGQTARITCGGNNIESKIVSWYQQKPGQAPVLVIFYDTDRPSGISERFSGSNSGNTATLTISRVEAGDEADYYCQVWDSNSDHVIFGGGTKLTVLGQPKAAPSVTLFPPSSEELQANKATLVCLISDFYPGAVTVAWKADSSPVKAGVETTTPSKQSNNKYAASSYLSLTPEQWKSHRSYSCQVTHEGSTVEKTVAPTECS
B4: #R4-62: fully human anti-CHI3L1 mAb, Table 1 No. 37; heavy chain SEQ ID NO: 41, light chain SEQ ID NO: 42 (antibody, listed as Homo sapiens)
VH: EVQLVESGGGLVQPGGSLRLSCAASGLTFPNFAMTWVRQTPGKGLQWVSTISGRGDEPFYADSVKGRFTISRDNSKNMVYLHMNSLRAEDTAIYYCAKGGHFSSWDYWGQGTLVTVSS
light: NFMLTQPHSVSESPGKTVTISCTRSSGSIASNYVQWYQQRPDSAPTTVIYEDIERPSGVPDRFSGAIDSSANSASLTISGLQTEDEADYYCQSYDSSSYVFGTGTKVTVLGQPKANPTVTLFPPSSEELQANKATLVCLISDFYPGAVTVAWKADGSPVKAGVETTKPSKQSNNKYAASSYLSLTPEQWKSHRSYSCQVTHEGSTVEKTVAPTECS
B5: #R4-63: fully human anti-CHI3L1 mAb, Table 1 No. 38; heavy chain SEQ ID NO: 49, light chain SEQ ID NO: 50 (antibody, listed as Homo sapiens)
VH: EVQLVQSGAEVKKPGATVKISCKVSGYTFTDYYMHWVQQAPGKGLEWMGLVDPEDGETIYAEKFQGRVTITADTSTDTAYMELSSLRSEDTAVYYCATIGRPPDYWGQGTTVTVSS
light: QSVLTQPPSVSAAPGQKVTISCSGSSSNIGNNYVSWYQQLPGTAPKLLIYDNNKRPSGIPDRFSGSKSGTSATLGITGLQTGDEADYYCGTWDSSLSVWVFGGGTKLTVLGQPKAAPSVTLFPPSSEELQANKATLVCLISDFYPGAVTVAWKADSSPVKAGVETTTPSKQSNNKYAASSYLSLTPEQWKSHKSYSCQVTHEGSTVEKTVAPTECS

Molecular target: T1, CHI3L1 binding to IL-13Rα2 on A549 cell line (Homo sapiens, UniProt P36222)
T1 construct: host or cells: A549 cells carry the receptor
Test: Functional screen: block of CHI3L1 binding to IL-13Rα2 on A549 cell line
Type: cell-based
Conditions: A549 cells, compared with CHI3L1 only
Source text: CHI3L1 is known to associate with different receptors, such as IL-13Rα2 (He et al. 2013), CRTH2 (Zhou et al. 2015), TMEM219 (Lee et al. 2016), and galectin-3 (Zhou et al. 2015). […] Therefore, purified antibody leads were functionally screened for their ability to block CHI3L1 binding to IL-13Rα2 on A549 cell line (FIG. 3A). […] The sequences and defied CDR regions among those monoclonal antibodies are listed and summarized in the sequences list (SEQ ID NOs: 1 to 88) and Table 2, respectively. Anti-CHI3L1 clone R4-2 heavy chain (SEQ ID NO: 1), anti-CHI3L1 clone R4-2 light chain (SEQ ID NO: 2), anti-CHI3L1 clone R4-4 heavy chain (SEQ ID NO: 9), anti-CHI3L1 clone R4-4 light chain (SEQ ID NO: 10), anti-CHI3L1 clone R4-39 heavy chain (SEQ ID NO: 17), anti-CHI3L1 clone R4-39 light chain (SEQ ID NO: 18), anti-CHI3L1 clone R4-53 heavy chain (SEQ ID NO: 25), anti-CHI3L1 clone R4-53 light chain (SEQ ID NO: 26), anti-CHI3L1 clone R4-54 heavy chain (SEQ ID NO: 33), anti-CHI3L1 clone R4-54 light chain (SEQ ID NO: 34), anti-CHI3L1 clone R4-62 heavy chain (SEQ ID NO: 41), anti-CHI3L1 clone R4-62 light chain (SEQ ID NO: 42), anti-CHI3L1 clone R4-63 heavy chain (SEQ ID NO: 49), anti-CHI3L1 clone R4-63 light chain (SEQ ID NO: 50), anti-CHI3L1 clone R4-93 heavy chain (SEQ ID NO: 57), anti-CHI3L1 clone R4-93 light chain (SEQ ID NO: 58), anti-CHI3L1 clone 293R3-2 heavy chain (SEQ ID NO: 65), anti-CHI3L1 clone 293R3-2 light chain (SEQ ID NO: 66), anti-CHI3L1 clone 293R3-4 heavy chain (SEQ ID NO: 73), anti-CHI3L1 clone 293R3-4 light chain (SEQ ID NO: 74), anti-CHI3L1 clone 293R3-5 heavy chain (SEQ ID NO: 81), and anti-CHI3L1 clone 293R3-5 light chain (SEQ ID NO: 82) are shown in sequence listing.

T1 sequence (P36222 22-383): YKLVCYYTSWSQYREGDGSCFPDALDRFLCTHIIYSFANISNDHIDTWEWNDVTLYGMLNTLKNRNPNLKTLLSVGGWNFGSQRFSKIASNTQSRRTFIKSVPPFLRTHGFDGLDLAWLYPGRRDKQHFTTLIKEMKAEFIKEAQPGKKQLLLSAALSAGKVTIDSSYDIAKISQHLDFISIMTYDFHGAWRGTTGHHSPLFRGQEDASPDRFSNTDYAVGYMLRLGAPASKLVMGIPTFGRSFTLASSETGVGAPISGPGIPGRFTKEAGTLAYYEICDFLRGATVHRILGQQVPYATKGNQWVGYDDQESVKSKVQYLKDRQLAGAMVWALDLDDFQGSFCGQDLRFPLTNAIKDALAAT

CHI3L1 neutralizing activity, best neutralizing activity:
B1, B2, B3, B4, B5
